B1: Nucleolar transcription factor 1, residues 408 to 469; numbered along this chain, P17480 (parent)
chain: KRPVSAMFIFSEEKRRQLQEERPELSESELTRLLARMWNDLSEKKKAKYKAREAALKAQSER
B2: Zinc finger homeobox protein 4, residues 2562 to 2617; numbered along this chain, Q86UP3 (parent)
chain: RLRTTITPEQLEILYEKYLLDSNPTRKMLDHIAREVGLKKRVVQVWFQNTRARERK

± gives the uncertainty stated by the source.

In one series the parent is B1. Put plainly: abundance fitness (aPCA) (normalised: wild type 0, dead -1); higher = more abundant; growth selection in yeast, the domain comes from the species named. The settings on record: Homo sapiens.
Regarding A54Y, the abundance fitness is -0.075 ± 0.075.
Take A54Q: the abundance fitness is -0.102 ± 0.068.
Turning to A54W, the abundance fitness is -0.199 ± 0.059.
As for P3W, the abundance fitness was -0.297 ± 0.066.
As for P3C, the abundance fitness was -0.264 ± 0.1.
E21A: the abundance fitness is -0.099 ± 0.072.
Turning to E21M, the abundance fitness was -0.073 ± 0.063.
On to E21V, for which the abundance fitness was -0.1 ± 0.056.
On the same count and under the same terms, in the case of E21Y it was -0.276 ± 0.1; in that of F8D, -0.023 ± 0.07.
On to Q19N, for which the abundance fitness was -0.129 ± 0.074.
Take Q19E: the abundance fitness is -0.067 ± 0.054.
In the case of Q19R, the abundance fitness is -0.016 ± 0.041.
Same read-out and setting: in the case of P23V it was -0.244 ± 0.067; in that of P23G, -0.254 ± 0.058.
On to P23W, for which the abundance fitness is -0.588 ± 0.068.
With R36P, the abundance fitness is -0.483 ± 0.11.
Consider S28V, for which the abundance fitness is -0.089 ± 0.057.
In the case of A6P, the abundance fitness is -0.306 ± 0.15.
For K46L, the abundance fitness is -0.453 ± 0.046.
For the variant R22T, the abundance fitness is -0.229 ± 0.075.
With S60F, the abundance fitness was found to be 0.031 ± 0.069.
Turning to S60A, the abundance fitness is -0.028 ± 0.046.
On the same count and under the same terms, in the case of L41C it was -0.219 ± 0.093; in that of L41K, -0.576 ± 0.075.
As to L41G, the abundance fitness is -0.932 ± 0.049.
The same measure, in the same setting: to S26W belongs -0.944 ± 0.094.
Consider R2M, for which the abundance fitness is -0.13 ± 0.073.
Still for that read-out and setting: to E29Y belongs -0.433 ± 0.096; to E29L, -0.304 ± 0.047.
Take W38L: the abundance fitness is -0.985 ± 0.07.
Regarding W38Q, the abundance fitness is -0.701 ± 0.094.
For the variant E24D, the abundance fitness was found to be 0.03 ± 0.099.
Same read-out and setting: in the case of E24H it was -0.074 ± 0.11; in that of E24T, -0.123 ± 0.057; in that of E24A, -0.114 ± 0.059.
Still for that read-out and setting: in the case of V4T it was -0.111 ± 0.078.
The same measure, in the same setting: to V4N belongs -0.104 ± 0.18; to V4Y, -0.099 ± 0.069.
Consider L56V, for which the abundance fitness was -0.036 ± 0.051.
Regarding L56E, the abundance fitness was -0.045 ± 0.055.
As to R16F, the abundance fitness was -0.147 ± 0.1.
Same read-out and setting: to Y49E belongs -0.643 ± 0.062; to Y49D, -0.626 ± 0.075.
For the variant K57F, the abundance fitness is -0.058 ± 0.081.
On to M7A, for which the abundance fitness was -0.038 ± 0.067.
Regarding M7Q, the abundance fitness was 0.012 ± 0.076.
Take E20C: the abundance fitness was -0.025 ± 0.066.
Same read-out and setting: to K48P belongs -0.009 ± 0.074; to R62M, -0.019 ± 0.1.
Regarding D40K, the abundance fitness was -0.15 ± 0.084.
As to D40I, the abundance fitness was -0.763 ± 0.27.
The same measure, in the same setting: to D40T belongs -0.202 ± 0.078; to S5D, -0.02 ± 0.061; to S5Q, -0.115 ± 0.087.
Regarding R32P, the abundance fitness is -0.116 ± 0.073.
As for R32W, the abundance fitness is -0.136 ± 0.054.
Regarding R32K, the abundance fitness turned out to be 0.021 ± 0.048.
Turning to A51S, the abundance fitness was -0.066 ± 0.052.
With A35T, the abundance fitness was determined as 0.014 ± 0.093.
Consider A35L, for which the abundance fitness was -0.063 ± 0.038.
As to R52C, the abundance fitness was -0.111 ± 0.078.
Still for that read-out and setting: in the case of L25Q it was -0.477 ± 0.08.
Take L25R: the abundance fitness is -0.325 ± 0.054.
Consider K50F, for which the abundance fitness came to 0.002 ± 0.11.
Regarding T31K, the abundance fitness is -0.086 ± 0.086.
With T31R, the abundance fitness was -0.07 ± 0.042.
As for T31C, the abundance fitness is -0.143 ± 0.08.
As to N39H, the abundance fitness is -0.106 ± 0.11.
Regarding N39Y, the abundance fitness is -0.075 ± 0.082.
On the same count and under the same terms, in the case of N39W it was -0.203 ± 0.046.
For the variant A55S, the abundance fitness was -0.065 ± 0.056.
On the same count and under the same terms, in the case of A55K it was -0.054 ± 0.087; in that of K14V, -0.07 ± 0.047; in that of K14F, -0.034 ± 0.08.
With K14Y, the abundance fitness is -0.038 ± 0.064.
With E53F, the abundance fitness was -0.186 ± 0.068.
As to E53D, the abundance fitness is -0.123 ± 0.076.
Consider M37A, for which the abundance fitness was -0.095 ± 0.06.
Take E27S: the abundance fitness is -0.178 ± 0.06.
As to E27Y, the abundance fitness was -0.108 ± 0.1.
For L30H, the abundance fitness is -0.232 ± 0.12.
For I9Y, the abundance fitness was -0.181 ± 0.1.
Turning to I9N, the abundance fitness is -0.223 ± 0.12.
The same measure, in the same setting: in the case of I9V it was -0.131 ± 0.058.

In another series the parent is B2. The description is as above. The settings on record: Homo sapiens.
Consider L14R, for which the abundance fitness was -0.849 ± 0.096.
Take L14D: the abundance fitness is -0.754 ± 0.26.
Same read-out and setting: to L14T belongs -1 ± 0.18; to L14H, -0.846 ± 0.18; to L14M, -0.225 ± 0.088.
As for L14P, the abundance fitness is -0.658 ± 0.1.
Consider L14Y, for which the abundance fitness was -0.867 ± 0.17.
Consider L14F, for which the abundance fitness was -0.718 ± 0.14.
For L14S, the abundance fitness was -0.998 ± 0.17.
The same measure, in the same setting: to L14G belongs -0.773 ± 0.082.
Still for that read-out and setting: in the case of L14A it was -0.765 ± 0.093.
The same measure, in the same setting: to L14Q belongs -0.959 ± 0.17; to L14E, -0.924 ± 0.083.
On to L14N, for which the abundance fitness was 0.341 ± 0.39.
Take L14V: the abundance fitness is -0.945 ± 0.083.
Consider L14K, for which the abundance fitness was -1.05 ± 0.17.
Regarding L14C, the abundance fitness is -1.16 ± 0.25.
Regarding L14W, the abundance fitness is -1.16 ± 0.17.
Consider L11Y, for which the abundance fitness is -0.159 ± 0.15.
On the same count and under the same terms, to L11S belongs -0.082 ± 0.074; to L11I, -0.037 ± 0.16; to L11V, 0.123 ± 0.061.
Consider L11K, for which the abundance fitness was -0.05 ± 0.09.
As for L11W, the abundance fitness is -0.203 ± 0.07.
Turning to L11G, the abundance fitness was -0.017 ± 0.066.
For the variant L11N, the abundance fitness is -0.189 ± 0.11.
Take L11C: the abundance fitness is -0.85 ± 0.14.
Still for that read-out and setting: to L11M belongs -0.062 ± 0.089; to L11H, -0.01 ± 0.11; to L11E, 0.092 ± 0.12.
L11D: the abundance fitness is 0.108 ± 0.064.
Consider L11P, for which the abundance fitness is -1.05 ± 0.21.
On to L11T, for which the abundance fitness worked out at 0.215 ± 0.12.
Take L11A: the abundance fitness is -0.059 ± 0.053.
Same read-out and setting: in the case of L11Q it was 0.017 ± 0.094; in that of L11R, -0.043 ± 0.052; in that of I13L, -0.097 ± 0.083.
For the variant I13E, the abundance fitness is -0.06 ± 0.07.
With I13D, the abundance fitness was -0.535 ± 0.23.
With I13S, the abundance fitness is -0.041 ± 0.091.
In the case of I13P, the abundance fitness was -0.68 ± 0.06.
On to I13Q, for which the abundance fitness was 0.167 ± 0.095.
For the variant I13T, the abundance fitness was -0.139 ± 0.065.
With I13W, the abundance fitness is -0.246 ± 0.067.
For I13N, the abundance fitness is -0.161 ± 0.24.
As to I13G, the abundance fitness is -0.235 ± 0.081.
Same read-out and setting: in the case of I13H it was -0.588 ± 0.31.
With I13M, the abundance fitness was -0.088 ± 0.12.
In the case of I13A, the abundance fitness was 0.003 ± 0.08.
For I13K, the abundance fitness stood at 0.173 ± 0.08.
Turning to I13C, the abundance fitness was -0.389 ± 0.14.
On to I13F, for which the abundance fitness is -0.084 ± 0.14.
Regarding I13R, the abundance fitness was -0.003 ± 0.052.
Consider I13Y, for which the abundance fitness was -0.017 ± 0.1.
On to I13V, for which the abundance fitness is -0.072 ± 0.064.
Regarding Y15T, the abundance fitness is 0.067 ± 0.086.
In the case of Y15G, the abundance fitness was 0.009 ± 0.057.
As to Y15V, the abundance fitness is -0.206 ± 0.071.
Turning to Y15C, the abundance fitness is -0.063 ± 0.069.
On the same count and under the same terms, to Y15W belongs 0.048 ± 0.061; to Y15Q, 0.092 ± 0.068.
With Y15A, the abundance fitness is -0.105 ± 0.068.
In the case of Y15R, the abundance fitness was determined as 0.161 ± 0.044.
On to Y15D, for which the abundance fitness is -0.02 ± 0.12.
Turning to Y15L, the abundance fitness amounted to 0.054 ± 0.059.
For Y15P, the abundance fitness was -0.781 ± 0.073.
As to Y15F, the abundance fitness was -0.193 ± 0.13.
In the case of Y15E, the abundance fitness amounted to 0.301 ± 0.071.
The same measure, in the same setting: in the case of Y15K it was 0.1 ± 0.05.
As for Y15H, the abundance fitness came to 0.085 ± 0.1.
On to Y15N, for which the abundance fitness is 0.075 ± 0.094.
On to Y15I, for which the abundance fitness is -0.224 ± 0.093.
For the variant L2K, the abundance fitness is 0.24 ± 0.1.
Turning to L2W, the abundance fitness is -0.421 ± 0.12.
Still for that read-out and setting: to L2T belongs 0.105 ± 0.12.
For L2G, the abundance fitness is -0.132 ± 0.079.
Same read-out and setting: in the case of L2C it was -0.296 ± 0.083; in that of L2H, -0.357 ± 0.22; in that of L2D, 0.31 ± 0.13.
The same measure, in the same setting: in the case of L2M it was 0.024 ± 0.11.
Turning to L2R, the abundance fitness was -0.176 ± 0.076.
For L2S, the abundance fitness came out at 0.161 ± 0.068.
